Laboratory results taken from PMC3576024.

What was measured:
Test in all cases: DTNB colorimetric detection of released CoA, Michaelis-Menten fit
Format in all cases: biochemical, Aedes aegypti
Details in all cases: apparent Km; 0.4 mM acetyl-CoA, 50 mM Tris-HCl, 1.0 mg/mL BSA, room temperature
[1] = substrate: NC[C@H](O)c1ccc(O)cc1
[2] = substrate: NCCc1c[nH]c2ccccc12
[3] = substrate: NCCc1ccc(O)c(O)c1
[4] = substrate: NCCc1c[nH]c2ccc(O)cc12
[5] = substrate: NC[C@H](O)c1ccc(O)c(O)c1
[6] = substrate: NCCc1ccc(O)cc1

B1: aaNAT2 (PaaNAT2) (Aedes aegypti) (protein)
chain: MLDSKLNNIRFETISSKYYDDVIEHLRQTFFADEPLNKAVNLTRPGQGHPLLEQHSLSTLKDNVSIMAISNDGDIAGVALNGILYGNTDIEKSREKLNEIQDESFKKIFKLLYEQNLKINLFKQFDVDKIFEIRILSVDSRFRGKGLAKKLIEKSEELALDRGFQVMKTDATGAFSQRVVSSLGFITKCEINYTDYLDENGEQIFVVDPPHEKLKIMCKVIN
Km [1]: 270 ± 40 µM
kcat [1]: 3.65 ± 0.175 s⁻¹
kcat/Km [1]: 13500 M⁻¹ s⁻¹
Km [2]: 170 ± 40 µM
kcat [2]: 3.05 ± 0.197 s⁻¹
kcat/Km [2]: 17900 M⁻¹ s⁻¹
Km [3]: 130 ± 50 µM
kcat [3]: 2.56 ± 0.25 s⁻¹
kcat/Km [3]: 19700 M⁻¹ s⁻¹
Km [4]: 230 ± 50 µM
kcat [4]: 3.16 ± 0.198 s⁻¹
kcat/Km [4]: 13800 M⁻¹ s⁻¹
Km [5]: 420 ± 60 µM
kcat [5]: 3.47 ± 0.192 s⁻¹
kcat/Km [5]: 8270 M⁻¹ s⁻¹
Km [6]: 170 ± 30 µM
kcat [6]: 3.17 ± 0.183 s⁻¹
kcat/Km [6]: 18600 M⁻¹ s⁻¹

B2: aaNAT1 (PaaNAT1) (Aedes aegypti) (protein)
chain: MASKMSTVSSDAKGAIVKPSSTDDSTLPLDEVDTNISIELITEDDAEDVLKLLKKFFFKDEPLNTFVNLGECKELEKYSTKNLHEHCSFKAVNGRGEIVGVNINGLINRPKETDEPPAKLADGCEHPKFKKIMALMDYVDEHFNIFDLYPDVDRMLDVKIMSVDSRYRGLGIAGKLTDRTMQYVKDNNIKLVHVLCSSHFSARVMEKLDFEEVYKLDYSDYLVNGEQVFDPEKPHTAVRILTKRLA
Km [1]: 140 ± 80 µM
kcat [1]: 7.26 ± 1.12 s⁻¹
kcat/Km [1]: 51900 M⁻¹ s⁻¹
Km [2]: 160 ± 40 µM
kcat [2]: 7.34 ± 0.528 s⁻¹
kcat/Km [2]: 45900 M⁻¹ s⁻¹
Km [3]: 190 ± 70 µM
kcat [3]: 7.3 ± 0.742 s⁻¹
kcat/Km [3]: 38400 M⁻¹ s⁻¹
Km [4]: 230 ± 60 µM
kcat [4]: 7.54 ± 0.595 s⁻¹
kcat/Km [4]: 32800 M⁻¹ s⁻¹
Km [5]: 160 ± 40 µM
kcat [5]: 7.76 ± 0.577 s⁻¹
kcat/Km [5]: 48500 M⁻¹ s⁻¹
Km [6]: 170 ± 40 µM
kcat [6]: 6.77 ± 0.413 s⁻¹
kcat/Km [6]: 39800 M⁻¹ s⁻¹
